Laboratory results published in patent publication US20220033501A1 (SHANGHAI PHARMAEXPLORER, published 2022).

Key:
[1] = target: T1, TIM-3 protein on human peripheral blood mononuclear lymphocytes (PBMC) (human, UniProt Q8TDQ0 22-301); test: cell-based or functional assay
T1 sequence: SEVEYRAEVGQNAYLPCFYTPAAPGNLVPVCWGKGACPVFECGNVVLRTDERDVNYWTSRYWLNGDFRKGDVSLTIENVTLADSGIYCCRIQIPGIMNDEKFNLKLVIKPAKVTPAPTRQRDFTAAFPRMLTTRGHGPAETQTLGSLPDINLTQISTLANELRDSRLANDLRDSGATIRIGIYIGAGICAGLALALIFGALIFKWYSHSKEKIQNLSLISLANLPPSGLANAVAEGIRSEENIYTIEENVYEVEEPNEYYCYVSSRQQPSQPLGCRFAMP

[2] = target: T2, human TIM-3 on CHOK1 stable cell line (CHOK1-hTIM-3) (human, UniProt Q8TDQ0 22-301); test: FACS, CHOK1-hTIM-3 cells, 0 nM antibody
T2 sequence: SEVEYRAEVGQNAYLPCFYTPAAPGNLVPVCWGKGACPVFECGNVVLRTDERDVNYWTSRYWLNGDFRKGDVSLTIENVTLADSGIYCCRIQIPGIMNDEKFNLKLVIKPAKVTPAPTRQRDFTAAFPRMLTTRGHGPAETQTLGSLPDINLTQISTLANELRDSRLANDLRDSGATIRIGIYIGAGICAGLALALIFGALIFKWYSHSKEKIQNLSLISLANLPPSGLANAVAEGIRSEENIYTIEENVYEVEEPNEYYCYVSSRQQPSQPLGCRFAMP

[3] = target: T2, human TIM-3 on CHOK1 stable cell line …; test: FACS, CHOK1-hTIM-3 cells, 0.013 nM antibody
[4] = target: T2, human TIM-3 on CHOK1 stable cell line …; test: FACS, CHOK1-hTIM-3 cells, 0.064 nM antibody
[5] = target: T3, human TIM-3 extracellular domain protein with hFc tag (hTIM-3-hFc) (human, UniProt Q8TDQ0 22-200); test: ELISA, coated human TIM-3 ECD protein, 0.0067 nM antibody
T3 construct: not shown: human IgG Fc fragment (hFc) of the pCpC vector
T3 sequence: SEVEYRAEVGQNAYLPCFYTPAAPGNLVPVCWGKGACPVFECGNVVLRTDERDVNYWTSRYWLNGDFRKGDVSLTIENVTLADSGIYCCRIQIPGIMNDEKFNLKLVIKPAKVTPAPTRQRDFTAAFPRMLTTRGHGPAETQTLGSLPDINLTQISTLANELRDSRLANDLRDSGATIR

[6] = target: T3, human TIM-3 extracellular domain …; test: ELISA, coated human TIM-3 ECD protein, 0.6667 nM antibody
[7] = target: T4, murine TIM-3 extracellular domain protein with hFc tag (mTIM-3-hFc) (mouse, UniProt Q8VIM0 29-191); test: ELISA, coated mouse TIM-3 ECD protein, 0.0667 nM antibody
T4 construct: also called mouse TIM-3 extracellular domain protein; not shown: human IgG Fc fragment (hFc) of the pCpC vector
T4 chain: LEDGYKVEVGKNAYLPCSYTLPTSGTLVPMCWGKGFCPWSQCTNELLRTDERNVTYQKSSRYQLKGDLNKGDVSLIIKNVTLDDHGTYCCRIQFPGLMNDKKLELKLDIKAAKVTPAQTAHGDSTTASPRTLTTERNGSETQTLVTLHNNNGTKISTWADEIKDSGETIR

B1: 215A8F2 fully human TIM-3 antibody (human IgG4, kappa) (antibody, V domains shown)
VH: QVQLQQWGAGLLKPSETLSLTCTVYGGSFSGYYWNWIRQPPGKGLEWLGEINHSGSTNYNPSLKRRVTISVDTSKNQFSLKLSSVTAADTAVYYCARVYYYGPFDFWGQGTLVTVSS
VL: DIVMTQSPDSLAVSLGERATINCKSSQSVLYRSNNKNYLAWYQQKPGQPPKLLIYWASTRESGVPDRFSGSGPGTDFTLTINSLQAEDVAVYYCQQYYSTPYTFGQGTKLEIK
IFN-γ production (donor X); antibody 0.1 µg/ml, N = 1 [1]: 2410 pg/mL | IFN-γ production (donor X); antibody 0.1 µg/ml, N = 2 [1]: 3170 pg/mL | IFN-γ production (donor X); antibody 1 µg/ml, N = 1 [1]: 2780 pg/mL | IFN-γ production (donor X); antibody 1 µg/ml, N = 2 [1]: 2030 pg/mL | IFN-γ production (donor X); antibody 10 µg/ml, N = 1 [1]: 3000 pg/mL | IFN-γ production (donor X); antibody 10 µg/ml, N = 2 [1]: 2470 pg/mL | IFN-γ production (donor X); antibody '0' (4th head as printed), N = 1 [1]: 2100 pg/mL | IFN-γ production (donor X); antibody '0' (4th head as printed), N = 2 [1]: 2300 pg/mL | IFN-γ production (donor X); antibody '0' (5th head as printed), N = 1 [1]: 1970 pg/mL | IFN-γ production (donor X); antibody '0' (5th head as printed), N = 2 [1]: 2400 pg/mL | Mean fluorescence intensity [2]: 2.9 | Mean fluorescence intensity [3]: 8.2 | Mean fluorescence intensity [4]: 20.5 | OD450 [5]: 0.27 | OD450 [6]: 2.88 | OD450 [7]: 0.31

B2: 7A4F10 fully human TIM-3 antibody (human IgG4, kappa) (antibody, V domains shown)
VH: EVQLLESGGGLVQPGGSLRLSCAASGFTFRTHLISWVRQAPGKGLEWVAAITGSGGSTYYADSVKGRFIISRDNSKNTLFLQMNSLRAEDTAVYYCAKDGGSGSYDDFWGQGTLVTVSS
VL: ETVLTQSPVTLSLSPGERATLSCRASQSVGSYLAWYQQKPGQAPRLLIYDASNRATGIPARFSGSGSGTDFTLTISSLEPEDFAVYYCQQRSNWPPTFGQGTKVEIK
IFN-γ production (donor X); antibody 0.1 µg/ml, N = 1 [1]: 2930 pg/mL | IFN-γ production (donor X); antibody 0.1 µg/ml, N = 2 [1]: 2730 pg/mL | IFN-γ production (donor X); antibody 1 µg/ml, N = 1 [1]: 2920 pg/mL | IFN-γ production (donor X); antibody 1 µg/ml, N = 2 [1]: 2780 pg/mL | IFN-γ production (donor X); antibody 10 µg/ml, N = 1 [1]: 2900 pg/mL | IFN-γ production (donor X); antibody 10 µg/ml, N = 2 [1]: 2360 pg/mL | IFN-γ production (donor X); antibody '0' (4th head as printed), N = 1 [1]: 2340 pg/mL | IFN-γ production (donor X); antibody '0' (4th head as printed), N = 2 [1]: 2370 pg/mL | IFN-γ production (donor X); antibody '0' (5th head as printed), N = 1 [1]: 2290 pg/mL | IFN-γ production (donor X); antibody '0' (5th head as printed), N = 2 [1]: 2230 pg/mL | Mean fluorescence intensity [2]: 2.8 | Mean fluorescence intensity [3]: 9.7 | Mean fluorescence intensity [4]: 28.8 | OD450 [5]: 0.32 | OD450 [6]: 2.75 | OD450 [7]: 0.22

B3: 18D2H2 fully human TIM-3 antibody (human IgG4, kappa) (antibody, V domains shown)
VH: EVQLVESGGDLVQPGGSLRLSCAASGFTFSTYWMTWVRQAPGRGLEWVANIKQDGSAKYYVDSVKGRFTLSRDDAKNSLYLQMNSLRAEDTAVYYCARGSNWFDYWGQGTLVTVSS
VL: ETVMTQSPATLSVSPGERATLSCRANQNVYSNLAWYQQKPGQAPRLLIYDASTRATGFPARFSGSGSGTEFTLTISSLQSEDFAVYYCQQYNNWPLTFGGGTKVEIK
IFN-γ production (donor X); antibody 0.1 µg/ml, N = 1 [1]: 2660 pg/mL | IFN-γ production (donor X); antibody 0.1 µg/ml, N = 2 [1]: 2650 pg/mL | IFN-γ production (donor X); antibody 1 µg/ml, N = 1 [1]: 3000 pg/mL | IFN-γ production (donor X); antibody 1 µg/ml, N = 2 [1]: 3140 pg/mL | IFN-γ production (donor X); antibody 10 µg/ml, N = 1 [1]: 2810 pg/mL | IFN-γ production (donor X); antibody 10 µg/ml, N = 2 [1]: 3070 pg/mL | IFN-γ production (donor X); antibody '0' (4th head as printed), N = 1 [1]: 2280 pg/mL | IFN-γ production (donor X); antibody '0' (4th head as printed), N = 2 [1]: 2590 pg/mL | IFN-γ production (donor X); antibody '0' (5th head as printed), N = 1 [1]: 2340 pg/mL | IFN-γ production (donor X); antibody '0' (5th head as printed), N = 2 [1]: 2170 pg/mL | Mean fluorescence intensity [2]: 2.8 | Mean fluorescence intensity [3]: 11.6 | Mean fluorescence intensity [4]: 32.9 | OD450 [5]: 0.32 | OD450 [6]: 2.58 | OD450 [7]: 0.22

B4: 34B6D8 fully human TIM-3 antibody (human IgG4, kappa) (antibody, V domains shown)
VH: EVQLVESGGGLVQPGGSLRLSCAASGFTFSTYWMTWVRQAPGKRLEWVANIKQGGGDKYYVDSVKGRFTISTDNAKNSLYLQMNSLRAEDTAVYYCARGSNWFDPWGQGTLVTVSS
VL: EIVMTQSPATLSMSPGERATLSCRASQSVYDNLAWYQQKPGQAPRLLIYGASTRATGIPARFSGSGSGTEFTLTISSLQSEDFALYYCQQYTHWPITFGQGTRLEIK
IFN-γ production (donor X); antibody 0.1 µg/ml, N = 1 [1]: 2770 pg/mL | IFN-γ production (donor X); antibody 0.1 µg/ml, N = 2 [1]: 2820 pg/mL | IFN-γ production (donor X); antibody 1 µg/ml, N = 1 [1]: 2930 pg/mL | IFN-γ production (donor X); antibody 1 µg/ml, N = 2 [1]: 3550 pg/mL | IFN-γ production (donor X); antibody 10 µg/ml, N = 1 [1]: 2980 pg/mL | IFN-γ production (donor X); antibody 10 µg/ml, N = 2 [1]: 3330 pg/mL | IFN-γ production (donor X); antibody '0' (4th head as printed), N = 1 [1]: 2600 pg/mL | IFN-γ production (donor X); antibody '0' (4th head as printed), N = 2 [1]: 2540 pg/mL | IFN-γ production (donor X); antibody '0' (5th head as printed), N = 1 [1]: 2280 pg/mL | IFN-γ production (donor X); antibody '0' (5th head as printed), N = 2 [1]: 2390 pg/mL | Mean fluorescence intensity [2]: 2.9 | Mean fluorescence intensity [3]: 9.2 | Mean fluorescence intensity [4]: 22.2 | OD450 [5]: 0.29 | OD450 [6]: 3.11 | OD450 [7]: 0.25

B5: 39E5H1 fully human TIM-3 antibody (human IgG4, kappa) (antibody, V domains shown)
VH: EVQLVESGGGLVQPGGSLRLSCAASGFTFSSYWMSWVRQAPGKGLEWVANIKRGGSERYYVDSVKGRFTISGDNAKNSVYLQMNSLRAEDTAVYYCARGSNWFDPWGQGTLVTVSS
VL: ETVMTQSPAILSVSPGERATLSCRASQSVYSNLAWYQQKLGQAPRLLIYDASTRATGIPARFSGSGSGTEFTLTISSLQSEDFAVYYCQQYNNWPITFGQGTRLEIK
IFN-γ production (donor X); antibody 0.1 µg/ml, N = 1 [1]: 2700 pg/mL | IFN-γ production (donor X); antibody 0.1 µg/ml, N = 2 [1]: 2880 pg/mL | IFN-γ production (donor X); antibody 1 µg/ml, N = 1 [1]: 3070 pg/mL | IFN-γ production (donor X); antibody 1 µg/ml, N = 2 [1]: 3000 pg/mL | IFN-γ production (donor X); antibody 10 µg/ml, N = 1 [1]: 3150 pg/mL | IFN-γ production (donor X); antibody 10 µg/ml, N = 2 [1]: 3130 pg/mL | IFN-γ production (donor X); antibody '0' (4th head as printed), N = 1 [1]: 2580 pg/mL | IFN-γ production (donor X); antibody '0' (4th head as printed), N = 2 [1]: 2460 pg/mL | IFN-γ production (donor X); antibody '0' (5th head as printed), N = 1 [1]: 2190 pg/mL | IFN-γ production (donor X); antibody '0' (5th head as printed), N = 2 [1]: 2370 pg/mL | Mean fluorescence intensity [2]: 2.8 | Mean fluorescence intensity [3]: 9.2 | Mean fluorescence intensity [4]: 27 | OD450 [5]: 0.25 | OD450 [6]: 3.01 | OD450 [7]: 0.24
